This is an account of results in patent EP4763865A1.

Assay [1] has as its target human c-MET on Hs746T human gastric cancer cells (human) (UniProt P08581). The experiment in a line: cell-based or functional assay.
The target is the same in assay [2]. The experiment in a line: cell-based or functional assay. The source holds these as a separate data set.
For assay [3] the target is unchanged. The experiment in a line: flow cytometry on Hs746T cells, 4-parameter fit.
Assay [4] concerns the target Human c-MET, His Tag (Sino Biological, Cat. No. 10692-H08H) (human) (UniProt P08581). Nature of the assay: ELISA, coated human c-MET His Tag, 4-parameter fit. (ELISA stands for enzyme-linked immunosorbent assay.)
The target in assay [5] is human c-MET on Hs746T human gastric cancer cells (human) (UniProt P08581). The experiment in a line: flow cytometry on Hs746T cells, PE secondary antibody, 4-parameter fit. (Flow cytometry measures light scatter and fluorescence of single cells or particles in a stream.)
Assay [6] concerns the target human c-MET antigen (human) (UniProt P08581). Nature of the assay: ELISA OD450 of clone supernatant divided by PBS blank.
Assay [7] shares this target. The experiment in a line: ELISA, E. coli lysate supernatant of clone on human c-MET antigen.

Where two headings read alike, the source gives them in different places.

As to MHB07-PC (Telisotuzumab) (antibody), in assay [1], the Fab-ZAP endocytosis-mediated cell killing, Bottom (killing rate %) was 49.7%; the Fab-ZAP endocytosis-mediated cell killing, EC50 amounted to 0.0199 nM; the Fab-ZAP endocytosis-mediated cell killing, Top (killing rate %) came out at 83.2%. In assay [2], this molecule returned a Fab-ZAP endocytosis-mediated cell killing, Bottom (killing rate %) of 15.4%; a Fab-ZAP endocytosis-mediated cell killing, EC50 of 0.0128 nM; a Fab-ZAP endocytosis-mediated cell killing, Top (killing rate %) of 98.3%. Also, in assay [3], the Bottom stood at 610 MFI; the EC50 (in general, the concentration that produces a half-maximal response) came to 0.788 µg/mL; the Top amounted to 8340 MFI. In assay [4], this molecule displayed a Bottom of 0.0407 OD450, an EC50 of 0.00925 µg/mL and a Top of 2.02 OD450. In assay [5], this molecule came in with a Bottom of 18000 MFI, an EC50 of 0.31 µg/mL and a Top of 647000 MFI.
In assay [3], Isotype (antibody) came in with a Bottom of -124 MFI, an EC50 of 9.74 µg/mL and a Top of 722 MFI. In assay [4], this molecule returned a Bottom of 0.0582 OD450, an EC50 of 4.09 µg/mL and a Top of 0.0795 OD450.

B1: MH172-HGF R-7-2-92 (VHH)
VHH: QLQLVESGGGLVQAGGSLRLSCAASGRITNTYVMGWFRQAPGKERELQAAITWTVGSTYYVDSVKGRFTISRDNAKNTLYLQMNSLKPEDTAVYYCAASRFSAWPPRGTLGEWNSWGQGTQVTVSS
Regarding B1, the Unique seq/PBS (fold over PBS) in assay [6] came out at 42.3. Further, in assay [7], the OD450 was 3.26 OD450.
